The source of these data is paper PMC8352653 (Cell Reports, 2021).

Residue numbers refer to the chain shown, from its start.

Assay [1] addresses SARS-CoV-2 RBD (SARS-CoV-2, Wuhan-Hu-1 (assumed), UniProt P0DTC2). The experiment in a line: ELISA. (An ELISA detects its analyte on a solid surface through an enzyme-linked reagent.)
Assay [2] concerns the target recombinant stabilized trimeric prefusion ectodomain of the SARS-CoV-2 S protein (S6P_(ecto)) (SARS-CoV-2, UniProt P0DTC2).
For assay [3], the target named is S protein C-terminal S2 region expressed on HEK293T cells (SARS-CoV-2, Wuhan-Hu-1, UniProt P0DTC2). The experiment in a line: flow cytometry on cells. For orientation: Flow cytometry measures light scatter and fluorescence of single cells or particles in a stream.

B1: COV2-2531 (antibody, V domains shown)
VH: QVQLQESGPGLVKPSETLSLTCSVSGGSIRSYFWNWVRQPPGKGLEWIGYIYYSGSTNYKPSFKSRVTISLDTSKNQISLKLSSVTAADTAVYYCARATWLRDAFGIWGQGTMVTVSS
VL: NFMLTQPHSVSESPGKTVTISCTGNSGSIASNYVQWYQQRPGSAPTTVIYEDSQRPSGVPDRFSGSIDSSSNSASLTISGLKTEDEADYYCQSFDSGNVVFGGGTKLTVL
B1: the binding result in assay [1] was “binds”.

B2: C126 (antibody, V domains shown)
VH: QVQLQESGPGLVKPSETLSLSCAVSGGSIGSYFWSWIRQPPGKGLEWIGYLHYSGSTNYNPSLKSRVTISVDTSKNQFSLKLSSVTAADTAVYYCARLQWLRGAFDIWGQGTMVTVSS
VL: B1 VL with N25S, Y50N, S53N, F94Y, G97S, V99L
B2: in assay [1], the binding result is “binds”.

B3: group 3 germline revertant (antibody, V domains shown)
VH: B1 VH with S23T, R30S, F33Y, N35S, V37I, K60N, F63L, L71V, I78F
VL: B1 VL with N25S, S53N, F94Y, G97S
As to B3, the binding result in assay [1] is on record as “binds”.

B4: COV2-2164 (antibody, V domains shown)
VH: QVQLVQSGAEVKKPGSSVKVSCKASGGTFSSYAISWVRQAPGQGLEWMGGIIPIFGTANYAQKFQGRVTITADESTSTGYMQLSSLRFEDTAVYYCARTSHYDSSGSYFEYWGQGTLVTVSS
VL: EIVLTQSPATLSLSPGERATLSCRASQSVSSYLAWYQQKPGQAPRLLIYDASNRATGIPARFSGSGSGTDFTLTISSLEPEDFAVYYCHKRSNWPPSLTFGGGTKVEIK
As for B4, in assay [2], the binding result is given as “binds”.

B5: CnC2t1p1_B10 (antibody, V domains shown)
VH: B4 VH with E74K, G79A, Q82E, F88S, T99V, H101G, S107Y, Y108W, F109G, E110D
VL: B4 VL with H89Q, K90Q, S97A
As to B5, the binding result in assay [3] is “binds”.

B6: COV2-2002 (antibody, V domains shown)
VH: EVQLVESGGGLVQPGGSLRLSCAASGFTFSFYWMSWVRQAPGKGLEWVANIKQDGSEKYYVDSVKGRSTISRDNAKNSLYLQMNSLRAEDTAVYYCARVGSSSWYFDYWGQGTLVTVSS
VL: not shown
Take B6: the binding result in assay [3] is on record as “binds”.

B7: COV2-2333 (antibody, V domains shown)
VH: B6 VH with F31I, E46Q, G55A, S68F, V99L, S101G, Y105H
VL: SYELTQPPSVSVSPGQTASITCSGDKLGDKYSSWYQQKPGQSPVLVIYEDTKRPSGIPERFSGSNSGNTATLTISGTQAMDEADYYCQAWSSSTAVFGGGTKLTVL
For the molecule B7, in assay [3], the binding result is listed as “binds”.
